Consider two molecules from publication PMC10303457 (Viruses, 2023).

This assay has as its target Mouse IMPα1 residues 70–529 (lacking the IMPβ binding domain) (mouse, UniProt P52293 70-529). The assay is described as follows: crystal structure. Conditions: both partners purified.

Consider VRRAGKYYSVEYCKRKID [HeV M NLS2 peptide (untagged)], for which the binding result is “binds”.

With SGKRKKIRTIAAYPLGVGKS [HeV M NLS1 peptide (untagged)], the binding result is given as “binds”.
